We go through one molecule from patent US20230416704A1, “LACTONASE AND STABILIZED MUTANTS THEREOF FOR TREATING FUNGAL INFECTIONS IN PLANTS” (MIGAL GALILEE RESEARCH INSTITUTE LTD., priority 2020, published 2023).

One data set deals with P. expansum. Kind of data set: Pathogenicity assay in apples (EaAiiA).
Data set [1] can be described thus: Enzyme kinetics analysis of EaAiiA with patulin. The conditions noted are these: 0.05 μM EaAiiA, patulin 0-0.4 mM, pH 7.5, 100 μM ZnCl2.
Experimental: (6A) Michaelis-Menten kinetics analysis with 0.05 μM purified bacterial lactonase (EaAiiA), in activity buffer containing 100 mM Tris pH 7.5, 100 mM NaCl, 100 μM ZnCl2, at Error bars indicate standard deviation of three replicates for each treatment.
Enzyme kinetics analysis with patulin. EaAiiA activity (0.05 μM) with patulin was analyzed as follows: EaAiiA activity was measured by detecting the reduction in the UV absorbance (detected at 278 nm) of patulin at different concentrations (0-0.4 mM) in the presence of enzyme at a final concentration of 0.05 μM, in an activity buffer containing 100 mM Tris pH 7.5, 100 mM NaCl, 100 μM ZnCl2, in UV 96-well plates. An activity buffer was used as a negative control. The activity was monitored in a microtiter plate reader (BioTeK, Winooski, VT, USA). Reactions were performed as the concentration of organic solvent was lower than 1%. Vo initial rates were corrected for the patulin spontaneous hydrolysis background rate performed with an activity buffer. Kinetic parameters were obtained by GraphPad software as fitting initial rates directly to the Michaelis-Menten equation, standard deviations obtained from three independent measurements.

Experimental for P. expansum: The lesion size of the treated apples was measured 3 days after inoculation with P. expansum. Mean values of 18 replicates are presented (**** p<0.0001, according to one-way ANOVA followed by Tukey-Kramer).
Pathogenicity assay in apples. P. expansum spores (50 spores/ml) were incubated in 1 ml LB medium/sterile water at 25° C. 300 rpm either alone or 2 μM EaAiiA, and apples were then inoculated and incubated in the same manner as described above. Enzyme incubated with 50 mM EDTA at 90° C. for 1 hour was used as a negative control (inactivated enzyme).

B1: EaAiiA: AHL lactonase encoded by Erwinia amylovora, metallo-β-lactamase fold (protein, listed as Erwinia amylovora)
chain: MNYHIIPVTAFAQNCSVIWCPETGEAALVDPGGDAQKIKHEIAALGLTVKQILLTHGHLDHVGAAAELAEHYDVPIVGPHKADKFWLDGLPQQSQMFGFDECAPLTPDRWLQEGEVVLVGNTVLEVLLCPGHTPGHIVFFERKARLLVSGDVIFSGGVGRSDFPQGSHQDLIASILNKLLPLGDDVTFIAGHGPMSTLGRERISNPFLQ
In general, kcat refers to the number of substrate molecules converted per active site and unit of time at saturation. For orientation: Km means the substrate concentration at which the rate is half of its maximum. In the case of B1, in the data set on P. expansum (EaAiiA inactivated by 90° C. and EDTA prior to incubation with spores), the “effect of inactivated enzyme on inhibition of fungal colonization” value is “fully reduced the inhibition”. The “decline of colonized area” value in the data set with P. expansum (spores incubated with 2 μM EaAiiA prior to apple inoculation, third day after inoculation) was determined as 85%. Also, the kcat in data set [1] turned out to be 5.426 ± 1.5 s⁻¹. Further, the Km in data set [1] (read-out: estimated KM) was 764 ± 284 µM.
